# Measured values published in IntAct's records for PubMed 22430200.
# B1: E3 ubiquitin-protein ligase RNF31 (Homo sapiens), Q96EP0 (parent)
# chain: MPGEEEERAFLVAREELASALRRDSGQAFSLEQLRPLLASSLPLAARYLQLDAARLVRCNAHGEPRNYLNTLSTALNILEKYGRNLLSPQRPRYWRGVKFNNPVFRSTVDAVQGGRDVLRLYGYTEEQPDGLSFPEGQEEPDEHQVATVTLEVLLLRTELSLLLQNTHPRQQALEQLLEDKVEDDMLQLSEFDPLLREIAPGPLTTPSVPGSTPGPCFLCGSAPGTLHCPSCKQALCPACDHLFHGHPSRAHHLRQTLPGVLQGTHLSPSLPASAQPRPQSTSLLALGDSSLSSPNPASAHLPWHCAACAMLNEPWAVLCVACDRPRGCKGLGLGTEGPQGTGGLEPDLARGRWACQSCTFENEAAAVLCSICERPRLAQPPSLVVDSRDAGICLQPLQQGDALLASAQSQVWYCIHCTFCNSSPGWVCVMCNRTSSPIPAQHAPRPYASSLEKGPPKPGPPRRLSAPLPSSCGDPEKQRQDKMREEGLQLVSMIREGEAAGACPEEIFSALQYSGTEVPLQWLRSELPYVLEMVAELAGQQDPGLGAFSCQEARRAWLDRHGNLDEAVEECVRTRRRKVQELQSLGFGPEEGSLQALFQHGGDVSRALTELQRQRLEPFRQRLWDSGPEPTPSWDGPDKQSLVRRLLAVYALPSWGRAELALSLLQETPRNYELGDVVEAVRHSQDRAFLRRLLAQECAVCGWALPHNRMQALTSCECTICPDCFRQHFTIALKEKHITDMVCPACGRPDLTDDTQLLSYFSTLDIQLRESLEPDAYALFHKKLTEGVLMRDPKFLWCAQCSFGFIYEREQLEATCPQCHQTFCVRCKRQWEEQHRGRSCEDFQNWKRMNDPEYQAQGLAMYLQENGIDCPKCKFSYALARGGCMHFHCTQCRHQFCSGCYNAFYAKNKCPEPNCRVKKSLHGHHPRDCLFYLRDWTALRLQKLLQDNNVMFNTEPPAGARAVPGGGCRVIEQKEVPNGLRDEACGKETPAGYAGLCQAHYKEYLVSLINAHSLDPATLYEVEELETATERYLHVRPQPLAGEDPPAYQARLLQKLTEEVPLGQSIPRRRK
# Variants of: B1
# Details: with hoil1_human RBCK1, Q9BYM8
# hoil1_human RBCK1, Q9BYM8, sequence (Q9BYM8 whole entry): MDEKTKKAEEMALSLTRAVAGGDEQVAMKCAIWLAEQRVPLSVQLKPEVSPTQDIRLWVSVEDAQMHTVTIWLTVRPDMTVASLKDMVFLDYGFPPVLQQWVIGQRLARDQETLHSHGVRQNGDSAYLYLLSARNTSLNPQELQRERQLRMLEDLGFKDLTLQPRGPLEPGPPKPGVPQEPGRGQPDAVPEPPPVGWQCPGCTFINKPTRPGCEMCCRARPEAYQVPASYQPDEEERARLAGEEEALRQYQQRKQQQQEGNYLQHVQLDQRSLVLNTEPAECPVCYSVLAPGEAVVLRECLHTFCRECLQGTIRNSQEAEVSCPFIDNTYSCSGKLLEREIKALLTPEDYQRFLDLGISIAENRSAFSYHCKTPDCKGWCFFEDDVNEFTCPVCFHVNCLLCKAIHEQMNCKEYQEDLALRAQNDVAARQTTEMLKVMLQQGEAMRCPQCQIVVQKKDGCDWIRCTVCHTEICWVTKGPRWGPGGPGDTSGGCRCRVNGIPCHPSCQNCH
row,Variant,effect of a mutation on the interaction
1,Q613A,disrupting interaction

# Variants of: B1
# Details: with hoil1_human RBCK1, Q9BYM8
# Remark: another data set of the same source
row,Variant,effect of a mutation on the interaction
1,Q613A,decreasing interaction
2,L617A,decreasing interaction

# Variants of: B1
# Details: with hoil1_human RBCK1, Q9BYM8
# Remark: another data set of the same source
row,Variant,effect of a mutation on the interaction
1,F620A,disrupting interaction

# Variants of: B1
# Details: with hoil1_human RBCK1, Q9BYM8
# Remark: another data set of the same source
row,Variant,effect of a mutation on the interaction
1,F620A,decreasing interaction

# Variants of: B1
# Details: with hoil1_human RBCK1, Q9BYM8
# Remark: another data set of the same source
row,Variant,effect of a mutation on the interaction
1,R623A,disrupting interaction

# Variants of: B1
# Details: with hoil1_human RBCK1, Q9BYM8
# Remark: another data set of the same source
row,Variant,effect of a mutation on the interaction
1,L617A,disrupting interaction
